The test system of this data set is Escherichia coli TOP10. As to the kind of experiment: shrunken log2 fold change of peptide-encoding DNA abundance (4.5 h post-induction vs induction); higher = less antimicrobial activity (less host growth inhibition). The note with it: time post-induction: 4.5 h; library: site-saturation at positions 5, 18, 19, 20.
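Note: peptides expressed intracellularly from a pBAD plasmid library in pooled LB shake-flask culture, induced with 0.3% L-arabinose, DNA abundance read by NGS, three biological replicates, DESeq2 with apeglm shrinkage.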

Consider RRIRDRPPRLPRPRPRPMRYPRP, for which the “shrunken log2 fold change” value was 0.104. In the case of RRIRTRPPRLPRPRPRPWDDPRP, the “shrunken log2 fold change” value worked out at 0.033. On to RRIRWRPPRLPRPRPRPRGTPRP, for which the “shrunken log2 fold change” value was 0.873. Take RRIRWRPPRLPRPRPRPKKEPRP: the “shrunken log2 fold change” value is -0.224. For RRIRHRPPRLPRPRPRPWKMPRP, the “shrunken log2 fold change” value turned out to be 0.00115. In the case of RRIRERPPRLPRPRPRPICQPRP it was 0.00158; in that of RRIRERPPRLPRPRPRPYQLPRP, -0.0108; in that of RRIRSRPPRLPRPRPRPIKVPRP, -0.181. On to RRIRWRPPRLPRPRPRPADPPRP, for which the “shrunken log2 fold change” value is 0.372. In the case of RRIRVRPPRLPRPRPRPVYWPRP, the “shrunken log2 fold change” value is 0.0159. Regarding RRIRGRPPRLPRPRPRPHESPRP, the “shrunken log2 fold change” value is 0.784. Consider RRIRHRPPRLPRPRPRPNLFPRP, for which the “shrunken log2 fold change” value was -0.0861. In the case of RRIRFRPPRLPRPRPRPPVNPRP it was 0.147. With RRIRMRPPRLPRPRPRPKQQPRP, the “shrunken log2 fold change” value came out at 0.48. The same measure for RRIRCRPPRLPRPRPRPAYDPRP: 0.0664; for RRIRGRPPRLPRPRPRPHVFPRP: 0.162; for RRIRIRPPRLPRPRPRPQVWPRP: -0.0966. Consider RRIRFRPPRLPRPRPRPNDKPRP, for which the “shrunken log2 fold change” value was -0.32. With RRIRIRPPRLPRPRPRPEMPPRP, the “shrunken log2 fold change” value stood at 0.0112. Consider RRIRMRPPRLPRPRPRPIHYPRP, for which the “shrunken log2 fold change” value is -0.689. Regarding RRIRFRPPRLPRPRPRPKYVPRP, the “shrunken log2 fold change” value is -0.594. For the sequence RRIRQRPPRLPRPRPRPWHLPRP, the “shrunken log2 fold change” value is -0.0241. On to RRIRDRPPRLPRPRPRPIYGPRP, for which the “shrunken log2 fold change” value is -0.0774. Consider RRIRMRPPRLPRPRPRPRFLPRP, for which the “shrunken log2 fold change” value was -0.00457.

For the sequence RRIRVRPPRLPRPRPRPFSPPRP, the “shrunken log2 fold change” value is -0.363. In the case of RRIRWRPPRLPRPRPRPCYLPRP, the “shrunken log2 fold change” value was -0.33. As for RRIRRRPPRLPRPRPRPWQWPRP, the “shrunken log2 fold change” value stood at 0.549. The same measure for RRIRWRPPRLPRPRPRPCYDPRP: -0.00133.

As to RRIRVRPPRLPRPRPRPVNFPRP, the “shrunken log2 fold change” value is 0.02.

For the sequence RRIRVRPPRLPRPRPRPCCQPRP, the “shrunken log2 fold change” value was -0.19. As to RRIRPRPPRLPRPRPRPRARPRP, the “shrunken log2 fold change” value was 0.58. As for RRIRQRPPRLPRPRPRPAHQPRP, the “shrunken log2 fold change” value was 0.0203. Regarding RRIRIRPPRLPRPRPRPWPMPRP, the “shrunken log2 fold change” value came to 0.0828. Turning to RRIRERPPRLPRPRPRPCRSPRP, the “shrunken log2 fold change” value is -0.0928.

In the case of RRIRIRPPRLPRPRPRPYLKPRP, the “shrunken log2 fold change” value amounted to 0.000419. Take RRIRCRPPRLPRPRPRPQFPPRP: the “shrunken log2 fold change” value was -0.17. With RRIRKRPPRLPRPRPRPTTIPRP, the “shrunken log2 fold change” value worked out at 0.259. For the sequence RRIRSRPPRLPRPRPRPQISPRP, the “shrunken log2 fold change” value was -0.00331. On to RRIRYRPPRLPRPRPRPNLNPRP, for which the “shrunken log2 fold change” value is -0.393. In the case of RRIRNRPPRLPRPRPRPVRQPRP, the “shrunken log2 fold change” value is 0.0327. The same measure for RRIRCRPPRLPRPRPRPITNPRP: -0.449; for RRIRGRPPRLPRPRPRPFSTPRP: -0.0796. Regarding RRIRQRPPRLPRPRPRPICLPRP, the “shrunken log2 fold change” value turned out to be 0.144. Turning to RRIRPRPPRLPRPRPRPEEYPRP, the “shrunken log2 fold change” value turned out to be 0.00398. Turning to RRIRNRPPRLPRPRPRPGEQPRP, the “shrunken log2 fold change” value came to 0.137. For RRIRERPPRLPRPRPRPNDEPRP, the “shrunken log2 fold change” value is -0.0119. As to RRIRTRPPRLPRPRPRPEVDPRP, the “shrunken log2 fold change” value is 0.036.

With RRIRHRPPRLPRPRPRPGPNPRP, the “shrunken log2 fold change” value is 0.813. Regarding RRIRLRPPRLPRPRPRPRHEPRP, the “shrunken log2 fold change” value worked out at 0.055. Take RRIRDRPPRLPRPRPRPCTFPRP: the “shrunken log2 fold change” value was -0.0767. As for RRIRSRPPRLPRPRPRPTHWPRP, the “shrunken log2 fold change” value worked out at 0.451. Take RRIRDRPPRLPRPRPRPLYIPRP: the “shrunken log2 fold change” value was -0.266. Take RRIRMRPPRLPRPRPRPGNHPRP: the “shrunken log2 fold change” value was -0.0526. On to RRIRERPPRLPRPRPRPTMTPRP, for which the “shrunken log2 fold change” value is -0.389. The same measure for RRIRQRPPRLPRPRPRPWFQPRP: -0.0867; for RRIRIRPPRLPRPRPRPVFSPRP: -0.626. For the sequence RRIRYRPPRLPRPRPRPDSKPRP, the “shrunken log2 fold change” value was -0.352. Regarding RRIRTRPPRLPRPRPRPMVFPRP, the “shrunken log2 fold change” value came out at 0.0283. On to RRIRNRPPRLPRPRPRPQWIPRP, for which the “shrunken log2 fold change” value is -0.446.

RRIRVRPPRLPRPRPRPTKQPRP: the “shrunken log2 fold change” value was -0.0322. Take RRIRSRPPRLPRPRPRPRKTPRP: the “shrunken log2 fold change” value was found to be 0.0973. Turning to RRIRIRPPRLPRPRPRPCASPRP, the “shrunken log2 fold change” value was 0.02.

As for RRIRDRPPRLPRPRPRPNYYPRP, the “shrunken log2 fold change” value is -0.305. For the sequence RRIRQRPPRLPRPRPRPCDEPRP, the “shrunken log2 fold change” value worked out at 0.0697. The same measure for RRIRSRPPRLPRPRPRPSPYPRP: -0.672; for RRIRMRPPRLPRPRPRPEIPPRP: 0.497. Consider RRIRTRPPRLPRPRPRPWGTPRP, for which the “shrunken log2 fold change” value was -0.11.

RRIRHRPPRLPRPRPRPMTMPRP: the “shrunken log2 fold change” value is -0.257. In the case of RRIRQRPPRLPRPRPRPCFLPRP, the “shrunken log2 fold change” value is 0.115. As to RRIRGRPPRLPRPRPRPHQIPRP, the “shrunken log2 fold change” value stood at 0.103.

Regarding RRIRVRPPRLPRPRPRPMKCPRP, the “shrunken log2 fold change” value was -0.00104.

As to RRIRRRPPRLPRPRPRPKFCPRP, the “shrunken log2 fold change” value came out at 0.175. In the case of RRIRTRPPRLPRPRPRPDWGPRP it was 0.194; in that of RRIRWRPPRLPRPRPRPKMCPRP, -0.0087. As to RRIRRRPPRLPRPRPRPFYFPRP, the “shrunken log2 fold change” value turned out to be 0.116. In the case of RRIRSRPPRLPRPRPRPMFTPRP it was -0.374; in that of RRIRCRPPRLPRPRPRPHNWPRP, -0.00871; in that of RRIRVRPPRLPRPRPRPLVNPRP, -0.244. As to RRIRTRPPRLPRPRPRPDWWPRP, the “shrunken log2 fold change” value worked out at 0.016. In the case of RRIRWRPPRLPRPRPRPELIPRP, the “shrunken log2 fold change” value turned out to be 1.56. As to RRIRARPPRLPRPRPRPSMAPRP, the “shrunken log2 fold change” value was determined as 0.333. Regarding RRIRYRPPRLPRPRPRPPCKPRP, the “shrunken log2 fold change” value was 0.0994. For RRIRPRPPRLPRPRPRPIFPPRP, the “shrunken log2 fold change” value is 0.0704. Take RRIRGRPPRLPRPRPRPITPPRP: the “shrunken log2 fold change” value is -0.0185. In the case of RRIRCRPPRLPRPRPRPFHEPRP it was -0.917; in that of RRIRYRPPRLPRPRPRPEGDPRP, -0.00396. For RRIRPRPPRLPRPRPRPNYFPRP, the “shrunken log2 fold change” value was -0.435. RRIRLRPPRLPRPRPRPSSWPRP: the “shrunken log2 fold change” value was -0.0958. RRIRARPPRLPRPRPRPFEAPRP: the “shrunken log2 fold change” value amounted to 0.564. With RRIRQRPPRLPRPRPRPTGAPRP, the “shrunken log2 fold change” value was found to be 0.412. On to RRIRRRPPRLPRPRPRPPSDPRP, for which the “shrunken log2 fold change” value turned out to be 0.79.

RRIRDRPPRLPRPRPRPSAYPRP: the “shrunken log2 fold change” value came out at 0.0641.

RRIRNRPPRLPRPRPRPWIVPRP: the “shrunken log2 fold change” value was determined as 0.0724. For the sequence RRIRQRPPRLPRPRPRPRDCPRP, the “shrunken log2 fold change” value was 0.142. The same measure for RRIRLRPPRLPRPRPRPMCKPRP: 0.0258; for RRIRARPPRLPRPRPRPPIYPRP: 0.0905; for RRIRFRPPRLPRPRPRPGFYPRP: -0.28. With RRIRGRPPRLPRPRPRPSWTPRP, the “shrunken log2 fold change” value stood at 0.219.

For RRIRPRPPRLPRPRPRPIISPRP, the “shrunken log2 fold change” value was -0.189. Turning to RRIRSRPPRLPRPRPRPEWLPRP, the “shrunken log2 fold change” value amounted to 0.625.

As to RRIRQRPPRLPRPRPRPEVGPRP, the “shrunken log2 fold change” value was -0.0239. As for RRIRRRPPRLPRPRPRPWSSPRP, the “shrunken log2 fold change” value stood at 0.0446. In the case of RRIRCRPPRLPRPRPRPQWQPRP it was 0.0413; in that of RRIRDRPPRLPRPRPRPCMCPRP, -0.0426; in that of RRIRPRPPRLPRPRPRPFLMPRP, -0.349. With RRIRCRPPRLPRPRPRPNQVPRP, the “shrunken log2 fold change” value worked out at 0.017. In the case of RRIRGRPPRLPRPRPRPANSPRP it was 0.186; in that of RRIRLRPPRLPRPRPRPMPWPRP, 0.276; in that of RRIRGRPPRLPRPRPRPWPIPRP, -0.095. On to RRIRYRPPRLPRPRPRPPIEPRP, for which the “shrunken log2 fold change” value is -0.154.

As to RRIRFRPPRLPRPRPRPYTRPRP, the “shrunken log2 fold change” value is -0.369.

RRIRFRPPRLPRPRPRPWSEPRP: the “shrunken log2 fold change” value was -0.173. In the case of RRIRPRPPRLPRPRPRPGSYPRP it was 0.0254. On to RRIRKRPPRLPRPRPRPMEQPRP, for which the “shrunken log2 fold change” value turned out to be 0.033. RRIRYRPPRLPRPRPRPDVMPRP: the “shrunken log2 fold change” value worked out at 0.0199. As for RRIRGRPPRLPRPRPRPCVTPRP, the “shrunken log2 fold change” value was found to be 1.34.

For RRIRFRPPRLPRPRPRPAAEPRP, the “shrunken log2 fold change” value was 0.558.

Regarding RRIRRRPPRLPRPRPRPRVQPRP, the “shrunken log2 fold change” value was 0.445.

For the sequence RRIRFRPPRLPRPRPRPWSYPRP, the “shrunken log2 fold change” value was -0.48. In the case of RRIRFRPPRLPRPRPRPWAWPRP it was 0.174; in that of RRIRLRPPRLPRPRPRPPHKPRP, -0.113.

For RRIRPRPPRLPRPRPRPRTSPRP, the “shrunken log2 fold change” value is 0.59. The same measure for RRIRSRPPRLPRPRPRPDMAPRP: -0.0366; for RRIRVRPPRLPRPRPRPSHLPRP: -0.443. The same measure for RRIRIRPPRLPRPRPRPCHFPRP: -0.131.

The values are drawn from the supplement of paper PMC9112550, “Optimization of the antimicrobial peptide Bac7 by deep mutational scanning” (BMC Biology, 2022).
